Results from PMC10547764, “KaScape: a sequencing-based method for global characterization of protein‒DNA binding affinity”.

B1: type 8 (GGACC) (dsDNA)
DNA 1: GCGCTGGACCAGGAG
DNA 2: CTCCTGGTCCAGCGC
B2: type 3 (GACCC) (dsDNA)
DNA 1: GCGCTGACCCAGGAG
DNA 2: CTCCTGGGTCAGCGC
B3: type 4 (GACCA) (dsDNA)
DNA 1: GCGCTGACCAAGGAG
DNA 2: CTCCTTGGTCAGCGC
B4: type 6 (TGACC) (dsDNA)
DNA 1: GCGCTTGACCAGGAG
DNA 2: CTCCTGGTCAAGCGC
B5: type 2 (GACCT) (dsDNA)
DNA 1: GCGCTGACCTAGGAG
DNA 2: CTCCTAGGTCAGCGC
B6: type 1 (GACCG) (dsDNA)
DNA 1: GCGCTGACCGAGGAG
DNA 2: CTCCTCGGTCAGCGC
B7: type 5 (AGACC) (dsDNA)
DNA 1: GCGCTAGACCAGGAG
DNA 2: CTCCTGGTCTAGCGC
B8: type 7 (CGACC) (dsDNA)
DNA 1: GCGCTCGACCAGGAG
DNA 2: CTCCTGGTCGAGCGC
B9: KaScape n=4 member GACT (dsDNA)
DNA 1: GCGCTGACTAGGAGTGGGATCCGGGGGGGG
DNA 2: CCCCCCCCGGATCCCACTCCTAGTCAGCGC

Each binder was assayed against T1, AtWRKY1N (N-terminal WRKY DNA-binding domain) (UniProt Q9SI37 105-169) (assay: EMSA; protein:DNA 1:1 and 2:1; KaScape: 2e-11 mol protein and 1e-10 mol dsDNA in 2 mL, 30 min, Ni beads 1 h at 4 C, washes in buffer C (25 mM HEPES pH 7.0, 100 mM NaCl); EMSA buffer not given). Conditions: protein: recombinant; tags: C-terminal His-tag (pET21b).
T1 sequence (Q9SI37 105-169): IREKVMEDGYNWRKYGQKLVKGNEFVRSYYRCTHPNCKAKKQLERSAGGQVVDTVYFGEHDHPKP

Binder	binding result
B1	binds
B2	binds
B3	binds
B4	binds
B5	binds
B6	binds
B7	binds
B8	no binding

Each binder was assayed against T1, AtWRKY1N (N-terminal WRKY DNA-binding …) (assay: KaScape pull-down + NGS; random n=4 pool; second strongest; KaScape: 2e-11 mol protein and 1e-10 mol dsDNA in 2 mL, 30 min, Ni beads 1 h at 4 C, washes in buffer C (25 mM HEPES pH 7.0, 100 mM NaCl); EMSA buffer not given). Conditions: protein: recombinant; tags: C-terminal His-tag (pET21b).

Binder	binding result
B9	binds
